Results taken from PMC8932645.
No end group written: not given here. *: point of attachment. Palmitoyl = CCCCCCCCCCCCCCCC(=O)*

Key:
[1] = biological target: GAS1 ectodomain (GAS1-Ecto), FLAG-HaloTag7-tagged (human) (UniProt P54826); test: ITC
[2] = biological target: Xenopus laevis PTCH1 (residues 1–1178) (Xenopus laevis); test: native gel or EMSA

Chain of UniProt P54826 (P54826 40-317): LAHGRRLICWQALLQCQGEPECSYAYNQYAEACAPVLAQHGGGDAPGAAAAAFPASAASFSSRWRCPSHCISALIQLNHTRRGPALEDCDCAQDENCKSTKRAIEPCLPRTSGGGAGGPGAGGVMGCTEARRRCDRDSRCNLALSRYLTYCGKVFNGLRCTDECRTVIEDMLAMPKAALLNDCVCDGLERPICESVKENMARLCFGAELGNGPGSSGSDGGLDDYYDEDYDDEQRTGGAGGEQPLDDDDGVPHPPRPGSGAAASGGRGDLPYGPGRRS

Row | Molecule | Kd [1] | percent of SHH transferred from GAS1 to an equimolar amount of PTCH1 [2]
1 | palmitoylated SHH effector peptide (EP, SHH residues 24–45) | 3.84 µM | 
2 | dually lipidated Sonic hedgehog (SHH) (from UniProt Q15465 24-197) (ligand) |  | > 50%
3 | octanoylated SHH effector peptide (EP) | 34.6 µM | 
4 | Palmitoyl-SGPGRGFGK [truncated, palmitoylated SHH EP (9aa, residues 24–32)] | 3.72 µM | 
